Data published in the supplement of paper PMC7125110.
± gives the standard error. This sample holds only a part of the variants without activity.

B1: glmS ribozyme (parent)
chain: AUAAAAGCGCCAGAACUACAGAAAUGUAGUUGACGAGGAGGAGGUUUAUCGAAUUUUCGGCGGAUGCCUCCAAA

Key:
Details in all cases: with glucosamine-6-phosphate
glucosamine-6-phosphate [1] = variants of: B1; test: self-cleavage kobs at 40 uM GlcN6P; higher = faster cleavage; RNA array
Method in brief: (§1)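 kcat and KM were obtained from weighted Michaelis–Menten fits across concentrations of kobs values. Those came from one- or two-exponential decay fits to per-tile medians normalised to baseline and to non-cleaving reference variants. The variants were barcoded ribozymes transcribed in situ by E. coli RNA polymerase on sequenced MiSeq chips and tracked through a hybridised Cy3 probe at 37 °C, with 40 μM to 10 mM glucosamine-6-phosphate in HEPES/KCl/Mg(OAc)2 buffer flowed in.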

glucosamine-6-phosphate [2] = variants of: B1; test: self-cleavage kobs at 10000 uM GlcN6P; higher = faster cleavage; RNA array
Method in brief: as §1

glucosamine-6-phosphate [3] = variants of: B1; test: self-cleavage kobs at 640 uM GlcN6P; higher = faster cleavage; RNA array
Method in brief: as §1

glucosamine-6-phosphate [4] = variants of: B1; test: self-cleavage kobs at 2500 uM GlcN6P; higher = faster cleavage; RNA array
Method in brief: as §1

glucosamine-6-phosphate [5] = variants of: B1; test: self-cleavage kobs at 160 uM GlcN6P; higher = faster cleavage; RNA array
Method in brief: as §1

Row | Variant | self-cleavage kobs at 40 uM GlcN6P (glucosamine-6-phosphate [1]) | self-cleavage kobs at 10000 uM GlcN6P (glucosamine-6-phosphate [2]) | self-cleavage kobs at 640 uM GlcN6P (glucosamine-6-phosphate [3]) | self-cleavage kobs at 2500 uM GlcN6P (glucosamine-6-phosphate [4]) | self-cleavage kobs at 160 uM GlcN6P (glucosamine-6-phosphate [5])
1 | G13U A36U A48G U55C C68G C70U | 0.0002 ± 6.4e-05 s⁻¹ | 0.000527 ± 0.00022 s⁻¹ |  |  | 
2 | G13C G35A A39G A53C U56C G63C | < 1e-05 s⁻¹ | < 1e-05 s⁻¹ | < 1e-05 s⁻¹ | < 1e-05 s⁻¹ | 
3 | A12C G38A | < 1e-05 s⁻¹ |  |  |  | < 1e-05 s⁻¹
4 | A12G A14G A15C U30G | 7.29e-05 ± 2e-05 s⁻¹ | 0.0042 ± 0.00087 s⁻¹ |  |  | 
5 | A12G G13U U31C U49G | < 1e-05 s⁻¹ |  |  |  | 
6 | A12U G32C | < 1e-05 s⁻¹ |  |  | < 1e-05 s⁻¹ | < 1e-05 s⁻¹
7 | C11G G43C | < 1e-05 s⁻¹ | < 1e-05 s⁻¹ | < 1e-05 s⁻¹ |  | < 1e-05 s⁻¹
8 | A12C C16G | 8.16e-05 ± 1.1e-05 s⁻¹ | 0.00517 ± 0.00083 s⁻¹ | 0.00067 ± 0.00012 s⁻¹ | 0.00161 ± 0.00035 s⁻¹ | 0.000158 ± 3.6e-05 s⁻¹
9 | A12G A52C C67G C71U | < 1e-05 s⁻¹ |  |  | < 1e-05 s⁻¹ | 
10 | A12C C71A | 6.84e-05 ± 9.7e-06 s⁻¹ | 0.00229 ± 0.00033 s⁻¹ | 0.000423 ± 6.6e-05 s⁻¹ | 0.00201 ± 0.0003 s⁻¹ | 
11 | G13U C50G C67A | 0.000194 ± 4.6e-05 s⁻¹ | 0.000101 ± 2.5e-05 s⁻¹ |  | 0.000138 ± 2.2e-05 s⁻¹ | 0.000278 ± 4.6e-05 s⁻¹
12 | A12C G38C U56C | < 1e-05 s⁻¹ | < 1e-05 s⁻¹ |  |  | 
13 | G13C C61U | < 1e-05 s⁻¹ |  | < 1e-05 s⁻¹ | < 1e-05 s⁻¹ | < 1e-05 s⁻¹
14 | A12G G63U | < 1e-05 s⁻¹ | < 1e-05 s⁻¹ |  |  | < 1e-05 s⁻¹
15 | A12C A53U G62U | < 1e-05 s⁻¹ | < 1e-05 s⁻¹ |  |  | 
16 | A12C A14G | 0.00067 ± 0.00016 s⁻¹ | 0.0484 ± 0.011 s⁻¹ | 0.00653 ± 0.0012 s⁻¹ | 0.0128 ± 0.0023 s⁻¹ | 0.00156 ± 0.00021 s⁻¹
17 | G13A G35C G41U A53C U54A | < 1e-05 s⁻¹ |  |  |  | 
18 | G13C A36G | < 1e-05 s⁻¹ | < 1e-05 s⁻¹ |  |  | < 1e-05 s⁻¹
19 | C11U A12U G13U A64C | < 1e-05 s⁻¹ | < 1e-05 s⁻¹ |  |  | 
20 | A12C G38A G51A G59U C68U | < 1e-05 s⁻¹ | < 1e-05 s⁻¹ |  |  | 
21 | A12C G38A G60A | < 1e-05 s⁻¹ | < 1e-05 s⁻¹ |  |  | < 1e-05 s⁻¹
22 | A12C G62U | < 1e-05 s⁻¹ | < 1e-05 s⁻¹ | < 1e-05 s⁻¹ | < 1e-05 s⁻¹ | < 1e-05 s⁻¹
23 | A12G A42C U46C C61G | < 1e-05 s⁻¹ | < 1e-05 s⁻¹ |  |  | 

Row | Variant | self-cleavage kobs at 40 uM GlcN6P (glucosamine-6-phosphate [1]) | self-cleavage kobs at 10000 uM GlcN6P (glucosamine-6-phosphate [2]) | self-cleavage kobs at 640 uM GlcN6P (glucosamine-6-phosphate [3]) | self-cleavage kobs at 2500 uM GlcN6P (glucosamine-6-phosphate [4]) | self-cleavage kobs at 160 uM GlcN6P (glucosamine-6-phosphate [5])
24 | C11G G59A C68A | < 1e-05 s⁻¹ | < 1e-05 s⁻¹ |  |  | 
25 | C11U A42C C67G C71A | < 1e-05 s⁻¹ | < 1e-05 s⁻¹ |  |  | 
26 | C11U A33G | < 1e-05 s⁻¹ | < 1e-05 s⁻¹ |  | < 1e-05 s⁻¹ | < 1e-05 s⁻¹
27 | G13C G35C A39U | < 1e-05 s⁻¹ |  |  |  | 
28 | A12U G44A C67U | 0.00174 ± 0.00037 s⁻¹ | 0.0153 ± 0.006 s⁻¹ |  |  | 
29 | G13C G35U | < 1e-05 s⁻¹ | < 1e-05 s⁻¹ |  |  | < 1e-05 s⁻¹
30 | A12C C34G G37U | < 1e-05 s⁻¹ | < 1e-05 s⁻¹ |  |  | 
31 | G13C A33C G41U | < 1e-05 s⁻¹ | < 1e-05 s⁻¹ | < 1e-05 s⁻¹ | < 1e-05 s⁻¹ | < 1e-05 s⁻¹
32 | C11U G44U | < 1e-05 s⁻¹ |  | < 1e-05 s⁻¹ | < 1e-05 s⁻¹ | < 1e-05 s⁻¹
33 | C11G U49A | < 1e-05 s⁻¹ |  | < 1e-05 s⁻¹ | < 1e-05 s⁻¹ | < 1e-05 s⁻¹
34 | A12G A64U C71U | < 1e-05 s⁻¹ |  |  |  | 
35 | G13C A39C U47G | < 1e-05 s⁻¹ |  |  | < 1e-05 s⁻¹ | < 1e-05 s⁻¹
36 | A12G G59A | < 1e-05 s⁻¹ | 2.34e-05 ± 1.1e-05 s⁻¹ |  |  | < 1e-05 s⁻¹
37 | G13A A15U G37C | < 1e-05 s⁻¹ |  |  |  | 
38 | A12C G38C U45A | < 1e-05 s⁻¹ | < 1e-05 s⁻¹ |  |  | 
39 | A12U A15U A52C | < 1e-05 s⁻¹ | < 1e-05 s⁻¹ |  |  | 
40 | A12U C71A | 0.000512 ± 5.5e-05 s⁻¹ | 0.0343 ± 0.0084 s⁻¹ | 0.00333 ± 0.00046 s⁻¹ | 0.0115 ± 0.0027 s⁻¹ | 0.0012 ± 0.00016 s⁻¹
41 | A12U A42G C50U C71G | < 1e-05 s⁻¹ | < 1e-05 s⁻¹ |  |  | 
42 | G13A A15G C16G G32U A42C U46A U57A C68U | < 1e-05 s⁻¹ |  |  |  | 
43 | A12C C34G G40U A52U C61U | < 1e-05 s⁻¹ | < 1e-05 s⁻¹ |  |  | 
44 | A12C G43U C70A | < 1e-05 s⁻¹ | < 1e-05 s⁻¹ |  |  | 
45 | C11G U31A A33U A36C | < 1e-05 s⁻¹ | < 1e-05 s⁻¹ |  | < 1e-05 s⁻¹ | 
46 | A12C U30G U54G | 3.64e-05 ± 1.3e-05 s⁻¹ | 0.00183 ± 0.00039 s⁻¹ |  | 0.000897 ± 0.00025 s⁻¹ | 
